± gives the uncertainty stated by the source.

The data set can be described thus: amyloid nucleation score (Sup35N fusion, yeast selection) (log enrichment); library NNK3; higher = more nucleation; inactive = no reads after selection. In outline:
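Nucleation score: DiMSum log enrichment of output over input reads, centred on the mode score of non-aggregating sequences. Only sequences with at least 100 input reads were kept. Reads came from Illumina sequencing of plasmid inserts before and after 7 days of growth at 30°C without adenine and uracil, in psi-negative yeast expressing Sup35N fused to peptides of 20 random codons after 24 hours of induction with 100 μM copper sulfate.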
The substance SWCCR returned an amyloid nucleation score of 1.4 ± 0.1. Then FKVWCVLSADIQF, with “inactive”; and FLLVLWSVFLTGT, with “inactive”.

On to VNNNYEVCNDRDSCPLINFC, for which the amyloid nucleation score entry is “inactive”. As for YFINMRKYCTCPDMCEVLRI, the figure is 0.574 ± 0.18. With PGGKVANESMQSSTHDDPGR, the amyloid nucleation score entry was “inactive”. As for GTLDNDRVIVWSDLDFSCFR, the entry is “inactive”; as for FRVKFIMCRHLSPNV, 0.682 ± 0.2; as for MIRVSHNRNASDQLRFASSL, “inactive”.

HLYLSSVENLKHLFKGVSVH: the amyloid nucleation score was -0.381 ± 0.9. As for SCLMLSIYSSQTWKSLCGLK, the figure is 0.95 ± 0.12; as for CLVTLVLTKFWCMCASSAVD, “inactive”. As for DDCIKPYSLIYTQRHTPRDI, the entry is “inactive”; as for RMGHVFMYDYHIV, “inactive”; as for RLTYIVCSA, “inactive”.

For YIASNAWETWRRDRSYRKRL, the amyloid nucleation score result was “inactive”. Then PSGTFFNSVVYGRWYKLKRK, with -0.34 ± 0.93. Turning to SFTMMRSFSA, the amyloid nucleation score result was “inactive”.

Turning to FYYRSFCRNGRRH, the amyloid nucleation score entry was “inactive”. As for AYRSKLKLCSYWIMGCVHPL, the entry is “inactive”; as for CRYESVYLNVEILPVTVAVV, “inactive”; as for CLVNNLCVLR, 0.047 ± 0.55.

As for RSMIWRKCF, the amyloid nucleation score entry is “inactive”. Then TIIRLIFIWAFFGSGICGRV, with “inactive”.

Regarding RIRMSCYLIVYIGIACGYIS, the amyloid nucleation score entry is “inactive”. Regarding RRALYKLSSKESWPVDCNSV, the amyloid nucleation score entry was “inactive”. Turning to YTQFYSMILDRRFCFNSVEL, the amyloid nucleation score entry is “inactive”. As for SYGKTFAMSYVW, the entry is “inactive”; as for EMNLLFIVDAIELCPVLQAR, “inactive”; as for FTMASLRIKDIFWLLTNLTW, “inactive”. Then GRFASYMYCILQQHSLFYWV, with “inactive”. On to VSGSFVYLLCNS, for which the amyloid nucleation score result was “inactive”.

As for DGACVSSRLSWGLVYMKKCS, the amyloid nucleation score entry was “inactive”.

Consider SYQVCSKQTPHFSLSFIMFV, for which the amyloid nucleation score is -0.488 ± 0.96. Consider VSNLGCCKALSCGMSYRVCW, for which the amyloid nucleation score result is “inactive”. Then LVFKYSKAVSTYWYEGDQVT, with “inactive”; and DVFRVMDNLLFWKGTLALIQ, with “inactive”; and GIVYKRVYRMWVHVAEAESR, with “inactive”. Then RFVAHG, with “inactive”; and IHVMSWKQSYSI, with 0.949 ± 0.15; and YWFSQFVIFGCSS, with “inactive”. As for ATIGRVRGLKDPHLYQCAFM, the entry is “inactive”; as for NFSIYYLDLISR, 1.95 ± 0.098. With HSFIDERWSLYYERVLVYTG, the amyloid nucleation score entry is “inactive”.

Turning to AFPTVLLHWRN, the amyloid nucleation score entry was “inactive”. Then CDFREVTLDY, with “inactive”; and ALEFRSTENTSSSG, with -0.223 ± 0.73; and RRSTYLIVFVG, with “inactive”.

As to CMRYVGSPDNRHWASGKGIP, the amyloid nucleation score result was “inactive”. Then CWAPHPKDRKPVRGNYSVHN, with “inactive”. For TMAEGL, the amyloid nucleation score result was “inactive”. As for HGCYFYYSCTFYC, the figure is 3.29 ± 0.08.

For KVGIF, the amyloid nucleation score result was “inactive”. As for IAALNFSCRTLSL, the entry is “inactive”; as for WSGHIGVLRTTSSQQWRVRR, “inactive”. Then RAWNWWGFVTFPERLMCSHT, with “inactive”; and SLMCLLVRLLIKN, with “inactive”; and LQCLNQVRSRLVVLLLIFNV, with “inactive”.

For the substance ASARRCVSVVLIHTAKIHRN, the amyloid nucleation score entry was “inactive”. Then GPPAEASHKLWPASPRDRCP, with “inactive”. As to VVMWAPLRYDFKSKDRAVES, the amyloid nucleation score entry is “inactive”. As for SCNQKMGHLNFCNFFWTLTV, the entry is “inactive”; as for TTSLMSKVFY, “inactive”; as for RLSGSEKVELM, “inactive”. Then VYFSDVV, with “inactive”; and FALMFLSWYNRKSVSRPCTE, with “inactive”. With YWSIFTLVVPMRFAFIWS, the amyloid nucleation score result is “inactive”. As for FDRNSPTVLFRLRWEYF, the entry is “inactive”; as for ILCFGLLN, “inactive”.

Take YVVRN: the amyloid nucleation score entry was “inactive”. Then KYRVGMSSWFNLAHYGNLCG, with 0.228 ± 0.25; and SYTPHY, with “inactive”; and RTSVDQLEMKMRFSMSFGWL, with 0.449 ± 0.64. As to SNPLQGDSLRSVLSCNSIYF, the amyloid nucleation score entry was “inactive”.

Take FEWLMGRHLYISLRLHMRRS: the amyloid nucleation score result was “inactive”. Then LRIERQSAFSCILDM, with “inactive”; and YNLAGVFVIGHGNACATAFR, with 0.831 ± 0.3. On to YIGRRNMPNFSSMWMWSQGK, for which the amyloid nucleation score entry was “inactive”. As for LNLQPRVDVVLVLFRTRANK, the figure is 0.767 ± 0.25; as for TPRKTLSDVLFFRLILS, “inactive”; as for YRSEGSWHDDSQSKKWWSGV, “inactive”. TWELHV came in with an amyloid nucleation score of -0.428 ± 1. Then RKYTKCSFRKKSWCPSPFEL, with “inactive”.

YFILIYWSQCSMWYYVFKYG: the amyloid nucleation score result is “inactive”.

Consider RRFKYIGLRGTMHRLNYFGL, for which the amyloid nucleation score entry was “inactive”. As for LMKMKRFLQLWTIGDGASKS, the figure is 1.81 ± 0.09; as for ETDCRSAQSIC, “inactive”. As for YLCYMEYVH, the entry is “inactive”. In the case of FKPWLYFGRPMAQLRDDCQV, the amyloid nucleation score entry was “inactive”. Then NKTDCETC, with “inactive”; and LMLDFSIGRSPGDNAVICRH, with “inactive”. Then PATLQSPISSK, with “inactive”; and SFSELVSAASKTQTVCRRKC, with “inactive”. Then YAVSLMIFGFWGSSMFSHPS, with 0.779 ± 0.11. As for YEWKTRGW, the amyloid nucleation score entry is “inactive”. As for FIVLCALLWFCLNWSDLLKF, the entry is “inactive”; as for TADRQGYSFEC, “inactive”.

For YTRCNISNMV, the amyloid nucleation score result was “inactive”.

The values are drawn from the supplement of paper PMC12042874.
